Laboratory results reported in the domain aggregation screens of Martell et al. (2025).

Assay: soluble fraction after stress (log2 fold change); higher = more stays soluble; pooled small domains, quantitative proteomics
Settings: stress: 75 degC
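Further: 20 min heating vs room temperature control held 20 min.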

Sequence | soluble fraction (log2)
HMGLNEGLNEGQQKVIQHIQENEGIKVKEISLKLNMPIDTVDRHIRVLKNLNLIERRGSRKTGGYFISN | -0.461
HMGLNELQVKLNEAMQRLSLKHRTVVVMHDIEGIPHDEIAKIVGVSVGTIRSRLFYARRQLQADLGEY | -2.32
HMGLNNVSDILRLDFNSFKKKFDKLPSGYKNSVVEQAALMIKSGELDSIKIKDYIEKSMGIELDI | -0.511
HMGLQDLFLNSLRKSKTPVTMFLVKGVKLQGVVTWFDNFSVLLRRDGMSQLVYKHSISTIMP | -0.0352
HMGLSARIAQRIHGLRTAQRMSLEALAARSGVSRSMISLIERNEASPTAVVLEKIATGLNVVLAALFDTP | -1.76
HMGLSNYEFNSISQTVKEKLEQGPLTLKALVDETAHLFAEDKVVSVVQWLIDQRDLAYDDHGLLQWKG | -0.792
HMGLTLREKMGHVLEMLKGREFLPFVSLFTVEEGRIGVVVTFMSILELVKEGILDLVQTESFGPIHVKAR | -0.541
HMGMAETTARILQLLGLLQSRRGWSGQELAERLGVTTRSVRRDVERLRELGYPVHASAGHGGGYQLGA | -2.18
HMGMGDALRILFNQAMLIEREQYLQAGAYERNENPVNYANGFKAKTLNTRVGALEVAVPQTRDSAFYPSFL | 0.0631
HMGMLATFVTSAKVPDDVVYAITKEVFENLDEFKKLHPALEGLTRETMLEGLTAPIHPGALKYYKEAGLM | -0.533
HMGMSQQKQSSTVRIIMQDISDANEGLMKMSQIIDAALAEGISETIVRNAISNLHRGGTIYESQTGTYQW | -0.196
HMGMTDEELNREEERVVAELEAKDEEELTIYNEEDLTFEETLDLPEGSLMRDRENGMIYLKVLDIWMPY | -0.575
HMGMTNRIKELRKAKGYRQEDLAAALGVSRQTIIAVENNKYNPTLELAMKLARHLQTTVEELFQL | -2.01
HMGMVEFEIGERDHSEDVSRKLFEAGLIEDASDFNQYMIEKKMDDHLQTGKYQIPKGATKDEILELIVR | 0.043
HMGMYAEERHQAIASLARKHGRVSVAELAERFNVTSETIRRDLDSLARRGLLTRVHGGAVPVE | 0.0144
HMGMYFTEMRKNEGLIALNGVAESNKRVSDLMDNLKDSSSFDAADIKAVKSGSGDASSLMDFELLVT | -0.0643
HMGNASQAARRQRIVDAALELLQDRPYDQIQMRDVAEGAGVALGTLYRYFPSKEQLFAHVLVE | -0.286
HMGNEMQVPNVAGKTVDEAIEIFNNMGLKVAAENKYAQSDDVKEGDVVKTDPSSGRNVKKGSEITLYISQG | 0.375
HMGNEVMYRQDLSEQELLSFIKKYTGQDEVTHIVVGAPKQRDNTPSPVETKITPFVVQLKAQFPDVNVV | 0.0976
HMGNFNDMLKYLRVREKMSQAELADKLGVSKSTVGMYELGKREPDFETLEAIADLFNVDMNFLLGK | -0.423
HMGNHMSFKMWGEQLQEAFRALETYDTQKAKTILNELVRFPIDSDITKALKGIISNIDDMMA | -0.881
HMGNLPPAVINARIKVSPAGRGVFVGFDKGSTSTEAKYADAIRGYLPNIEFNKDDHESVVTVPFNFR | -0.0124
HMGNTLAYSEFRQKVQEGAVKQVVLSEDRVTGELTNGDRFTANIVRDPELLKMLNDNNVKYDGKPT | 0.154
HMGNVGEAIEALVKGFQEGNQFQTLLGVTGSGKTFTMANVIAALNKPTLIISHNKTLAAQLYLSLIHIS | 0.277
HMGNYRVIKWGMQGDDVKLMQQMLINRGYVLSATGKYASRTLKAIMAFQEANGLKADGIVGKRTWNKLL | -2.78
HMGPAYEKIVANGQTFYRYNVKKGEGLMAVSRTFNVSVNDILKYNPSAASGLKDGQELLIPVIDDA | 0.16

Sequence | soluble fraction (log2)
HMGPESKLTDAIKDYIYALYENLKGKSKFRNTIIEEVKKLYGVDISRESIRRVVNQKTDAETTENDDDEKA | 0.432
HMGPKALLKIPGLQEVDAELLFKEGYKSISAVASADPEMLKAIPGVDEQKVTEWVTGAEQILSQQVNKGA | 0.49
HMGPKPVDMSPIPEGQRNQVLHDWMYGRAANHPENWGQIRSDALERGLKSGLKADEIHAITGSVARALGLE | 0.0169
HMGPNPLTEREQEILQLARTGEPVARLAKRLFLSPGTVRNHLSSAIGKLGAANRVEAAQFATERGW | 0.0399
HMGPSLDAVREQIRDLIAEEDKSAPYSDLSLVAELEKRGIHISRRTIAKYRGEMGIPNSDQRRYF | -0.0939
HMGPSSIVVYVSGAVKTPGVYTLAPGSRVDDAVRAAGGLSERAESAGTNLAAQLSDGEHVHVAAAGE | 0.0915
HMGPTGGLTPHIAIADKRASEAIEFYKQAFGAVEQVRMPAEDGVRLMHAHLLVNGSSLMMHDDFPEYSGQ | 0.133
HMGPTLSPAEKRVFEVIPYDAILQDMVIRAAELPPGEVLAALTTLELKGLIKRLPGNLVMRRAR | -0.294
HMGPVALGVTDGATYFSSVTITFRRGTAVLDGEPIASGHTVYKSGAHSLTLTAGGKTRTIAFTMDT | -4.04
HMGPVPLASAADMEKFYSHLQQVLDEVDFKDRTGSGHLMARLRRLFQRTVLDQNEINILRGILMAVQGRR | -3.03
HMGQGAASAPLRELGVDPVSEKQMVLKDGRFGPYVTDGETNASLRKGDEVETITDERASELLQMRRDAGPS | -0.139
HMGQISDDGALKKLASEVLAANPQALADWKAGKQQAVSFLVGQAMKASKGRGDAALLGELIRAALD | 0.2
HMGQKASEVEKIFVELQQQIIRGDLPPGYRLVESQIAAQFGVSRTPARLAIERLATAGLVAHETNRGATVH | -0.823
HMGQKNEDESLAKFYVHKKGNQYGPYSLIQIREYLKNNSFSLDDLASWDGQSWKKISQIPNLN | 0.12
HMGQLTDKQILLFSGKLAYEPTFASKYSKAGESYDDFIIRISGDLTDPKKIKEYSPYLKELGF | -0.35
HMGQNYTIVKGDSLWKIAQKQYGDGSQWKKIYDANKDAIESAAKKYGKKSSDSGKWIYPGVSLII | -0.112
HMGQVEVPDVVGMTQERAITTLTEAKLVAQIQLTPADVAKGLVAAQSPRAGLKIGEGSFVTIEVSTGPVI | -0.306
HMGQVFEGTFNRKANGKNSVTPAEGGEPVFIAERNSLHAMNGDLVKVSLLAKKKHQPREAQVIEILKRSD | 0.128
HMGQVPPLTRRETEIARLVSRGLSNKEIASTLVISPRTAEGHVEHILDKLGFSSRTQIATWLNEQTRNGK | -0.14
HMGRDWKTDLLNLATARGWGDVSYEVTGEGPDHARVYTAVAIVANQKTGTGVGPSKKEAERLAAEQAYRML | -0.099
HMGRELSDLELSLLRILDDKIPLLIDEAADRLQLPVAQVLSAVTIMEIDGLIRREGMRKYLRTVEVEETK | -1.63
HMGRFAETVEHIVAAQLARRQGIPTMEQFASFFNVSRATFQRRLGEEGETLEQIKQRVRLRLALELLHP | -3.1
HMGRGAAKGPLKELGLDPVTGRPLVVKDGKFGMYVTDGETNAGLRRGDLVEQLTLDRGMELLAERRARADQ | 0.201
HMGRKIDDPSSMTGAEKAAVILLALGDEQRQLWEMMDDEEIRVVSQAMVNLGNVTSGAVEKLIMEFVGSMS | -0.37
HMGRKPATTIPLQVRNAVLDLYRTKYYGANFQHYTELLHEHEGIRISTSSVAKILEAEYILSPK | -1.58
HMGRKPVSPEIVERVLQLAKSNPDWGYEHIAGTMRYLGYNVSATTIRHILEANGIVPDPERRL | -0.464

Sequence | soluble fraction (log2)
HMGRMSLDEAKAVILPIGEHKGHTMGEVLAIKPGLIDFYASQKFNSGKYPYLKEAAQVILENQG | -0.0288
HMGRRERKKLQSRRAIIEAAVTEFKEKGFREASVADIMTRADLGLGTFYNYFQSKEDILMSLLS | -0.0594
HMGRRRAAPQEPLRQFPASPVTGQPIKLLLGQYGPYVTDGTTNASLPKGSSPDELTFEQATQLLAERALRG | 0.0333
HMGRSARVQQAVHQAVRALLEENDGERSALSVPLVAERAGVNSSTIYRRWGDLPRLLAAVASN | -0.686
HMGRTVKGVNFVGLRDAGDPVDLAEIYSKEGADELVFLDITATHEKRKTLLDLVTRVAERINIPFTVGGGI | 0.056
HMGSALLEAGADDAGQRLDQWLAAKLGPSISRSRVQALIKQGAVLVGGKPAGEAKRKLVAGDVVSVALPEP | 0.0393
HMGSDLVAWAQTRIGRHPEEAADVIAALIDRHGEARVRAASRSLLARKFAHASDLRTAIDAAIG | -0.365
HMGSEEMLGALGVVERATDDGDWWIAVHGEHWRARSAQALVPGDRVRVARIDGLTLTVTPIA | -0.632
HMGSEGVKVEDTIGMSEAEATATLGKSGFVVNKTESHDPYIKAGNVITQSPAAGSKAPKGTTVTLTISLGP | 0.404
HMGSEISYSEFLNRVEQGQVAAVRLDGEQIFITGPTGEAYQTIQPRNTDVLPDLREAGVEIQAAPQ | 0.22
HMGSEYPSNPLASRWAKGVRLYHDEWGYGVIQAARGSEPDDYVITVRFESGAEKSFLPKFQAHSLMIVKD | -1.21
HMGSGQVTLPDLEGKSMKEVARILSQLGLHLSPDGHGLAFKQSPAAGTRVPVGSTIKVSFQPL | -0.164
HMGSKKAIPYVSGMSETEAQNELEEAGFKVTSSFQYDDSVESGKVISTTPEAGTKAEKGSTVTMLVSQGSN | 0.0103
HMGSLVQTAMQAVTKHIHDNAMRVGDTLPGEGHFAETLGVSRAVMREAFGALAALKLIDVGNGRKPRVGR | -1.33
HMGSNATIKYAIKGDESLVQVAQKFNVTVSELRSWNNISAFENAKTGQELVINVPASKYETYFALANT | 0.403
HMGSNLSFDLSQIIASRYQEKAAELGLTAPSLARTDLSPQEQATAEVVARAIIADYYDQRVAPFNDLIPQ | -0.631
HMGSNRPLALGDVVRIEGSKTLGTILELNAKDAVVALGALKTTLPLSRIHHASSQESQRLKRQATQAPLR | -0.203
HMGSPKLVIKNGQVDYQVLKKEKLDLLELTSLLRGQNTFSIREIEYAIIEPNGVITVIKKPEYQSVVKGDL | -0.43
HMGSPVTAVMNRVLNETERQIVTLHVISGFKHREIAELLEKPVGTVLWTYNNALGKMRKAMQRE | -1.67
HMGSRRFGDSNHAAKLTEEQVVEIRELAAAGATTKFLAEMVGMHPNYVGLILRGLSWPEAGGPLRVA | 0.126
HMGSVDMVYGDHKINSEHMDLSFKNQTAVLYDKVNYKSSLSMLSADKILVNFLNKYTKIEMNDENNNILIQ | 0.176
HMGSVNDNVQKLTSQIGETTETGDTITPEDVELYKKMVDPLSTMAQKLEAAEILKLKGIIGSNGIIV | -0.211
HMGSWEDALKNWVDSALASGQKGILEQAVPKFERIMIETALTHTAGRRRDASLLLGWGRNTLTRKIKELGI | -0.383
HMGTAESIRLFLSSGLIKGVGEALAGRIVDTFGTDTFDIIENHPELLAGVKGISHRLAMSIYESFSQHIGV | -1.13
